{
  "source": "patent US20170266254A1",
  "about": "(AILERON THERAPEUTICS, published 2017)",
  "biological_target": "T1, C-terminally 6x Histidine-tagged Beta-Catenin (aa 134-668, 59 KD) (UniProt P35222 134-668)",
  "T1 construct": "range 134-668; Armadillo repeat region",
  "T1 sequence": "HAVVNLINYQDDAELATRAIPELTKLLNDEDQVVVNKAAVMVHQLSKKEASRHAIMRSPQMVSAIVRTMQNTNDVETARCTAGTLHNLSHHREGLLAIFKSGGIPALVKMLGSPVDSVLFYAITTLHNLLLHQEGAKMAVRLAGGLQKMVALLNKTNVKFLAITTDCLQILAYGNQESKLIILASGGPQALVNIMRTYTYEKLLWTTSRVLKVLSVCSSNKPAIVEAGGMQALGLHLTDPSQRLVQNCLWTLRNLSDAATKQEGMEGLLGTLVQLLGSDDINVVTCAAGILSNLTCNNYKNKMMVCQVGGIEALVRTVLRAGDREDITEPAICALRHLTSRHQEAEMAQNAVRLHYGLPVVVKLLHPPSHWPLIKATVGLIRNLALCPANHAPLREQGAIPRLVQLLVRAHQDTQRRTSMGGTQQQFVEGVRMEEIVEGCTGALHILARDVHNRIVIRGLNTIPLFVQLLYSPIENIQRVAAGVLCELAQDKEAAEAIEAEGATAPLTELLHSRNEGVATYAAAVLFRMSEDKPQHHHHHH",
  "assay": "competitive fluorescence polarization, FAM-labelled linear probe as competitor, His-tagged beta-catenin 134-668",
  "experimental": "The following experiments are performed at room temperature unless otherwise noted. First, an assay buffer is prepared composed of 25 mM Tris-Hcl pH 7.5, 200 mM Sodium Chloride, and 5 mM CHAPS. Next, 1M DTT is added to assay buffer to a final concentration of 2 mM. […] Forty μl of this protein stock is added to all but six wells of a 96 well plate (which will serve as the free peptide and Blank). Test competitor peptides are diluted from 1 mM DMSO stocks to 2× working stocks in assay buffer. Further dilutions are made in assay buffer-DMSO as to maintain a constant DMSO concentration in all wells. The dilution is carried out such that the peptides have a working concentration range of 40 μM-0.7 μM (2×). As a benchmark, a linear, non-crosslinked peptide competitor is prepared as above but with a working concentration range of 13-0.7 μM. Fifty μl of the competitor 2× stocks are added to the 40 μl of protein solution previously transferred into the assay 96 well plate. Next, a 10× stock of the fluorescent probe is prepared. The probe is identical to the linear benchmark peptide except for the n-terminal conjugation of a FAM flourophore with Beta-Alanine spacer. A 1 mM DMSO stock of the probe is serially diluted to a final concentration of 25 nM (10×) and 10 μl of this stock is added to all wells except for those that will serve as the blank. The assay plate is stored in the dark and the reaction is allowed to run at room temperature for three hours. The reaction is then read on a Biotek Synergy 2 with the following settings: 100 ms delay, 40 measurements per well, with excitation filters of […], and emission filters of […]. Data is then analyzed in Graphpad Prism.",
  "note": "Bridges are numbered along the chain shown (N, C = ends). [ ]: non-standard residue; d: D form. S5 = C=CCCC[C@](C)(N)C(=O)O; Nle = CCCC[C@H](N)C(=O)O",
  "data": [
    {"binder": "Ac-SAERDL[S5]DVK[S5]SLVNESEKR-NH2 (staple 7-11; SMILES CC(=O)N[C@@H](CO)C(=O)N[C@@H](C)C(=O)N[C@@H](CCC(=O)O)C(=O)N[C@@H](CCCNC(=N)N)C(=O)N[C@@H](CC(=O)O)C(=O)N[C@@H](CC(C)C)C(=O)N[C@@]1(C)CCCC=CCCC[C@@](C)(C(=O)N[C@@H](CO)C(=O)N[C@@H](CC(C)C)C(=O)N[C@H](C(=O)N[C@@H](CC(N)=O)C(=O)N[C@@H](CCC(=O)O)C(=O)N[C@@H](CO)C(=O)N[C@@H](CCC(=O)O)C(=O)N[C@@H](CCCCN)C(=O)N[C@@H](CCCNC(=N)N)C(N)=O)C(C)C)NC(=O)[C@H](CCCCN)NC(=O)[C@H](C(C)C)NC(=O)[C@H](CC(=O)O)NC1=O)", "note": "[SP10]", "values": [
      {"measurement": "IC50", "value": "≥ 100", "unit": "µM"}
    ]},
    {"binder": "Ac-SAERDLADVK[S5]SLV[S5]ESEKR-NH2 (staple 11-15; SMILES CC(=O)N[C@@H](CO)C(=O)N[C@@H](C)C(=O)N[C@@H](CCC(=O)O)C(=O)N[C@@H](CCCNC(=N)N)C(=O)N[C@@H](CC(=O)O)C(=O)N[C@@H](CC(C)C)C(=O)N[C@@H](C)C(=O)N[C@@H](CC(=O)O)C(=O)N[C@H](C(=O)N[C@@H](CCCCN)C(=O)N[C@@]1(C)CCCC=CCCC[C@@](C)(C(=O)N[C@@H](CCC(=O)O)C(=O)N[C@@H](CO)C(=O)N[C@@H](CCC(=O)O)C(=O)N[C@@H](CCCCN)C(=O)N[C@@H](CCCNC(=N)N)C(N)=O)NC(=O)[C@H](C(C)C)NC(=O)[C@H](CC(C)C)NC(=O)[C@H](CO)NC1=O)C(C)C)", "note": "[SP12]", "values": [
      {"measurement": "IC50", "value": 85, "unit": "µM"}
    ]},
    {"binder": "Ac-SA[S5]RDL[S5]DVKSSLVNESEKR-NH2 (staple 3-7; SMILES CC(=O)N[C@@H](CO)C(=O)N[C@@H](C)C(=O)N[C@@]1(C)CCCC=CCCC[C@@](C)(C(=O)N[C@@H](CC(=O)O)C(=O)N[C@H](C(=O)N[C@@H](CCCCN)C(=O)N[C@@H](CO)C(=O)N[C@@H](CO)C(=O)N[C@@H](CC(C)C)C(=O)N[C@H](C(=O)N[C@@H](CC(N)=O)C(=O)N[C@@H](CCC(=O)O)C(=O)N[C@@H](CO)C(=O)N[C@@H](CCC(=O)O)C(=O)N[C@@H](CCCCN)C(=O)N[C@@H](CCCNC(=N)N)C(N)=O)C(C)C)C(C)C)NC(=O)[C@H](CC(C)C)NC(=O)[C@H](CC(=O)O)NC(=O)[C@H](CCCNC(=N)N)NC1=O)", "note": "[SP22]", "values": [
      {"measurement": "IC50", "value": "≥ 100", "unit": "µM"}
    ]},
    {"binder": "Ac-RDLANVK[S5]S[Nle]V[S5]ES-NH2 (staple 8-12; SMILES CCCC[C@@H]1NC(=O)[C@H](CO)NC(=O)[C@@](C)(NC(=O)[C@H](CCCCN)NC(=O)[C@@H](NC(=O)[C@H](CC(N)=O)NC(=O)[C@H](C)NC(=O)[C@H](CC(C)C)NC(=O)[C@H](CC(=O)O)NC(=O)[C@H](CCCNC(=N)N)NC(C)=O)C(C)C)CCCC=CCCC[C@@](C)(C(=O)N[C@@H](CCC(=O)O)C(=O)N[C@@H](CO)C(N)=O)NC(=O)[C@H](C(C)C)NC1=O, also called Ac-RDLANVK$SNleV$ES-NH2)", "note": "[SP34]", "values": [
      {"measurement": "IC50", "value": "≥ 100", "unit": "µM"}
    ]},
    {"binder": "Ac-RDL[S5]NVK[S5]SLVNES-NH2 (staple 4-8; SMILES CC(=O)N[C@@H](CCCNC(=N)N)C(=O)N[C@@H](CC(=O)O)C(=O)N[C@@H](CC(C)C)C(=O)N[C@@]1(C)CCCC=CCCC[C@@](C)(C(=O)N[C@@H](CO)C(=O)N[C@@H](CC(C)C)C(=O)N[C@H](C(=O)N[C@@H](CC(N)=O)C(=O)N[C@@H](CCC(=O)O)C(=O)N[C@@H](CO)C(N)=O)C(C)C)NC(=O)[C@H](CCCCN)NC(=O)[C@H](C(C)C)NC(=O)[C@H](CC(N)=O)NC1=O, also called Ac-RDL$NVK$SLVNES-NH2)", "note": "[SP9]", "values": [
      {"measurement": "IC50", "value": "≥ 100", "unit": "µM"}
    ]},
    {"binder": "Ac-RDLANVI[S5]SLV[S5]ES-NH2 (staple 8-12; SMILES CC[C@H](C)[C@H](NC(=O)[C@@H](NC(=O)[C@H](CC(N)=O)NC(=O)[C@H](C)NC(=O)[C@H](CC(C)C)NC(=O)[C@H](CC(=O)O)NC(=O)[C@H](CCCNC(=N)N)NC(C)=O)C(C)C)C(=O)N[C@@]1(C)CCCC=CCCC[C@@](C)(C(=O)N[C@@H](CCC(=O)O)C(=O)N[C@@H](CO)C(N)=O)NC(=O)[C@H](C(C)C)NC(=O)[C@H](CC(C)C)NC(=O)[C@H](CO)NC1=O, also called Ac-RDLANVI$SLV$ES-NH2)", "note": "[SP32]", "values": [
      {"measurement": "IC50", "value": "≥ 100", "unit": "µM"}
    ]},
    {"binder": "Ac-RNLADVK[S5]SLV[S5]ES-NH2 (staple 8-12; SMILES CC(=O)N[C@@H](CCCNC(=N)N)C(=O)N[C@@H](CC(N)=O)C(=O)N[C@@H](CC(C)C)C(=O)N[C@@H](C)C(=O)N[C@@H](CC(=O)O)C(=O)N[C@H](C(=O)N[C@@H](CCCCN)C(=O)N[C@@]1(C)CCCC=CCCC[C@@](C)(C(=O)N[C@@H](CCC(=O)O)C(=O)N[C@@H](CO)C(N)=O)NC(=O)[C@H](C(C)C)NC(=O)[C@H](CC(C)C)NC(=O)[C@H](CO)NC1=O)C(C)C, also called Ac-RNLADVK$SLV$ES-NH2)", "note": "[SP4]", "values": [
      {"measurement": "IC50", "value": "≥ 100", "unit": "µM"}
    ]},
    {"binder": "Ac-RDLANVV[S5]SLV[S5]ES-NH2 (staple 8-12; SMILES CC(=O)N[C@@H](CCCNC(=N)N)C(=O)N[C@@H](CC(=O)O)C(=O)N[C@@H](CC(C)C)C(=O)N[C@@H](C)C(=O)N[C@@H](CC(N)=O)C(=O)N[C@H](C(=O)N[C@H](C(=O)N[C@@]1(C)CCCC=CCCC[C@@](C)(C(=O)N[C@@H](CCC(=O)O)C(=O)N[C@@H](CO)C(N)=O)NC(=O)[C@H](C(C)C)NC(=O)[C@H](CC(C)C)NC(=O)[C@H](CO)NC1=O)C(C)C)C(C)C, also called Ac-RDLANVV$SLV$ES-NH2)", "note": "[SP33]", "values": [
      {"measurement": "IC50", "value": "≥ 100", "unit": "µM"}
    ]},
    {"binder": "Ac-RGLANVK[S5]SLV[S5]ES-NH2 (staple 8-12; SMILES CC(=O)N[C@@H](CCCNC(=N)N)C(=O)NCC(=O)N[C@@H](CC(C)C)C(=O)N[C@@H](C)C(=O)N[C@@H](CC(N)=O)C(=O)N[C@H](C(=O)N[C@@H](CCCCN)C(=O)N[C@@]1(C)CCCC=CCCC[C@@](C)(C(=O)N[C@@H](CCC(=O)O)C(=O)N[C@@H](CO)C(N)=O)NC(=O)[C@H](C(C)C)NC(=O)[C@H](CC(C)C)NC(=O)[C@H](CO)NC1=O)C(C)C, also called Ac-RGLANVK$SLV$ES-NH2)", "note": "[SP35]", "values": [
      {"measurement": "IC50", "value": "≥ 100", "unit": "µM"}
    ]},
    {"binder": "Ac-RDLADVK[S5]SLV[S5]ES-NH2 (staple 8-12; SMILES CC(=O)N[C@@H](CCCNC(=N)N)C(=O)N[C@@H](CC(=O)O)C(=O)N[C@@H](CC(C)C)C(=O)N[C@@H](C)C(=O)N[C@@H](CC(=O)O)C(=O)N[C@H](C(=O)N[C@@H](CCCCN)C(=O)N[C@@]1(C)CCCC=CCCC[C@@](C)(C(=O)N[C@@H](CCC(=O)O)C(=O)N[C@@H](CO)C(N)=O)NC(=O)[C@H](C(C)C)NC(=O)[C@H](CC(C)C)NC(=O)[C@H](CO)NC1=O)C(C)C, also called Ac-RDLADVK$SLV$ES-NH2)", "note": "[SP2]", "values": [
      {"measurement": "IC50", "value": "≥ 100", "unit": "µM"}
    ]},
    {"binder": "Ac-SAERDLA[S5]VKS[S5]LVNESEKR-NH2 (staple 8-12; SMILES CC(=O)N[C@@H](CO)C(=O)N[C@@H](C)C(=O)N[C@@H](CCC(=O)O)C(=O)N[C@@H](CCCNC(=N)N)C(=O)N[C@@H](CC(=O)O)C(=O)N[C@@H](CC(C)C)C(=O)N[C@@H](C)C(=O)N[C@@]1(C)CCCC=CCCC[C@@](C)(C(=O)N[C@@H](CC(C)C)C(=O)N[C@H](C(=O)N[C@@H](CC(N)=O)C(=O)N[C@@H](CCC(=O)O)C(=O)N[C@@H](CO)C(=O)N[C@@H](CCC(=O)O)C(=O)N[C@@H](CCCCN)C(=O)N[C@@H](CCCNC(=N)N)C(N)=O)C(C)C)NC(=O)[C@H](CO)NC(=O)[C@H](CCCCN)NC(=O)[C@H](C(C)C)NC1=O)", "note": "[SP11]", "values": [
      {"measurement": "IC50", "value": "≥ 100", "unit": "µM"}
    ]},
    {"binder": "Ac-SAERDLADVKS[S5]LVN[S5]SEKR-NH2 (staple 12-16; SMILES CC(=O)N[C@@H](CO)C(=O)N[C@@H](C)C(=O)N[C@@H](CCC(=O)O)C(=O)N[C@@H](CCCNC(=N)N)C(=O)N[C@@H](CC(=O)O)C(=O)N[C@@H](CC(C)C)C(=O)N[C@@H](C)C(=O)N[C@@H](CC(=O)O)C(=O)N[C@H](C(=O)N[C@@H](CCCCN)C(=O)N[C@@H](CO)C(=O)N[C@@]1(C)CCCC=CCCC[C@@](C)(C(=O)N[C@@H](CO)C(=O)N[C@@H](CCC(=O)O)C(=O)N[C@@H](CCCCN)C(=O)N[C@@H](CCCNC(=N)N)C(N)=O)NC(=O)[C@H](CC(N)=O)NC(=O)[C@H](C(C)C)NC(=O)[C@H](CC(C)C)NC1=O)C(C)C)", "note": "[SP13]", "values": [
      {"measurement": "IC50", "value": "≥ 100", "unit": "µM"}
    ]}
  ]
}
